Columns and labels:
[1] = target: T1, human CCL2 (MCP1) - wild type (wt) (human, UniProt P13500 24-99); assay: cell-based or functional assay
[2] = target: T1, human CCL2 (MCP1) - wild type (wt); assay: SPR T200, 37 C, antibody captured, 1:1 model
Description: (§1) Antibody clone supernatants were diluted 1:2 in system buffer and were captured for 1 min at 5 μl/min. […] Analyte kinetics were performed at 30 μl/min. As analyte in solution wt human CCL2 or monomeric CCL2 P8A variant CCL2 were used. Analytes were injected at 90 nM highest concentration. The analyte contact time was 3 min and the dissociation time was 10 min. The Biaevaluation software V.3.0 was used according to the instructions of the manufacturer GEHC. A 1:1 binding model with RMAX local was applied to apparently estimate kinetic rates.

[3] = target: T2, human CCL2 (MCP1) - P8A variant (human, UniProt P13500 24-99); assay: SPR T200, 37 C, antibody captured, 1:1 model
T2 construct: In-house point mutant that cannot dimerise; also called monomeric human CCL2; monomeric CCL2
Description: as §1

[4] = target: T1, human CCL2 (MCP1) - wild type (wt); assay: cell-based or functional assay; remark: listed apart in the source
[5] = target: T1, human CCL2 (MCP1) - wild type (wt); assay: SPR, C1 chip, anti-human Fc capture, 25 C, pH 7.4, Langmuir 1:1
Description: The sample and system buffer was PBS-T (10 mM phosphate buffered saline including 0.05% Tween20) pH 7.4. The flow cell was set to 25° C.—and the sample block set to 12° C.—and primed with running buffer twice. The bispecific antibody was captured by injecting a 2 μg/ml solution for 60 see at a flow rate of 10 μl/min. Association was measured by injection of human CCL2 (wt) in various concentrations in solution for 150 see at a flow rate of 30 μl/min starting with 30 nM in 1:10 dilutions. The dissociation phase was monitored for up to 1200 sec and triggered by switching from the sample solution to running buffer. […] Bulk refractive index differences were corrected by subtracting the response obtained from a goat anti human IgG Fc surface. Blank injections are also subtracted (=double referencing). For calculation of kinetic parameters, the Langmuir 1:1 model was used.

| THP1 chemotaxis [fold change compared to IgG control] [1] [fold] | Kd [2] [pM] | T1/2 [2] [h] | Kd [3] [pM] | T1/2 [3] [h] | binding result [5] | Binder | other results |
| --- | --- | --- | --- | --- | --- | --- | --- |
| 6.9 | 350 | 0.317 | 11 | 8.63 |  | murine 11K2 (antibody, V domains shown, also called 11K2m; X-0048) VH: EVQLQQSGAELVKAGASVKLSCPASGLNIKDTYMHWVKQRPEQGLEWIGRIDPANGNTKFDPKFQGKATITADTSSNTAYLQLSSLTSEDTAVYYCARGVFGFFDYWGQGTTLTVSS VL: DIQMTQSSSSFSVSLGDRVTITCKATEDIYNRLAWYQQKPGSAPRLLISGATSLETGVPSRFSGSGSGKDYTLSITSLQTEDVATYYCQQFWSAPYTFGGGTKLEIK |  |
|  |  |  |  |  | binds | 11K2//1G9-PGLALA (bispecific antibody, V domains shown, CrossMab, IgG1 with L234A, L235A, P329G, knobs-into-holes; crossed arm humanized 11K2, non-crossed arm 1G9; also called CCL2-0043; P1AA3463) VH 1: QVQLVQSGAEVKKPGSSVKVSCKASGLTISDTYMHWVRQAPGQGLEWMGRIDPANGNTKFDPKFQGRVTITADTSTSTAYMELSSLRSEDTAVYYCARGVFGFFDYWGQGTTVTVSS VL 1: DIQMTQSPSSLSASVGDRVTITCKATEDIYNRLAWYQQKPGKAPKLLISGATSLETGVPSRFSGSGSGTDYTLTISSLQPEDFATYYCQQFWSAPYTFGGGTKVEIK VH 2: QSLEESGGDLVKPGASLTLTCKASGIDFSLYSYMCWVRQAPGKGLEWIACVDAGASGSTYYASWAKGRFTISKTSSTTVTLQMTSLTAADTATYFCARGILYYTWPYPAGAIDAFDSWGPGTLVTVSS VL 2: AYDMTQTPASVSEPVGGTVTIKCQASESISNYLSWYQQKPGQPPKLLIYKASTLASGVPSRFKGSGSGTEYTVTISGVQSDDAATYYCQQSYSSSNVFNTFGGGTEVVVK |  |

Further lines, the binder ahead of its results:

| Binder | THP1 chemotaxis [fold change compared to IgG control] [1] [fold] | Kd [2] [pM] | T1/2 [2] [h] | Kd [3] [pM] | T1/2 [3] [h] | binding result [5] | other results |
| --- | --- | --- | --- | --- | --- | --- | --- |
| 1A4 (antibody, V domains shown, which format stood in each assay is not always stated; also called CCL2-0008) VH: QSLEESGGDLVKPGASLTLTCTASELDFYWICWVRQAPGKGLEWIACIGAGSSGSTYYASWAKGRFTVSKTSSTTVTLQMTSLTAADTATYFCARTGTEFTYYSLWGPGTLVTVSS VL: ALVMTQTPSSVSAAVGGTVTINCQASQSVYNNNMAWYQQKPGQPPKLLIYTASSLASGVPSHFRGSGSGTQFTLTISDLESDDAATYYCAGYKSYSNDEYGFGGGTEVVVK | 4.5 | 73 | 1.67 | 59 | 2.9 |  |  |
| CKLO2-IgG1 (bispecific antibody) heavy 1: not shown heavy 2: not shown light 1: QVQLVQSGAEVKKPGSSVKVSCKASGLTISHTYMHWVRQAPGQGLEWMGRIDPDNHNTKFDPKFQGRVTITADTSTSTAYMELSSLRSEDTAVYYCARGVFGFFEHWGQGTTVTVSSASVAAPSVFIFPPSDEQLKSGTASVVCLLNNFYPREAKVQWKVDNALQSGNSQESVTEQDSKDSTYSLSSTLTLSKADYEKHKVYACEVTHQGLSSPVTKSFNRGEC light 2: EIVLTQSPATLSLSPGERATLSCRASQHVSDAYLAWYQQKPGQAPRLLIYDASDRAEGVPARFSGSGSGTDFTLTISSLEPEDFAVYYCHQYIHLHSFTFGQGTKVEIKRTVAAPSVFIFPPSDRKLKSGTASVVCLLNNFYPREAKVQWKVDNALQSGNSQESVTEQDSKDSTYSLSSTLTLSKADYEKHKVYACEVTHQGLSSPVTKSFNRGEC |  |  |  |  |  |  | IC50, inhibition of THP-1 migration (chemotaxis assay) [4]: 0.2 µg/mL |
| CKLO2-GG01 (=P1AF8137) (bispecific antibody) heavy 1: DIQMTQSPSSLSASVGDRVTITCKAFEDIYNRRAWYQQKPGKAPKLLIHGATSLEHGVPSRFSGSGSGTDYTLTISSLQPEDFATYYCQQFWSAPYTFGGGTKVEIKSSASTKGPSVFPLAPSSKSTSGGTAALGCLVKDYFPEPVTVSWNSGALTSGVHTFPAVLQSSGLYSLSSVVTVPSSSLGTQTYICNVNHKPSNTKVDKKVEPKSCDKTHTCPPCPAPEYLGGDSVFLFPPKPKDVLMISRTPEVTCVVIDVSHEDPEVKFNWYVDGVEVHNAKTKPREEQYNSTYRVVSVLPVLHRDWLNGKEYKCKVSNKALPKPIEKTISKAKGQRREPQVYTLPPCRDELTKNQVSLWCLVKGFYPSDIAVEWESNGQPENNYKTTPPVLDSDGSFFLYSKLTVDKSRWQQGNVFSCSVMHEALHAHYTRKELSLSP heavy 2: not shown light 1: QVQLVQSGAEVKKPGSSVKVSCKASGLTISHTYMHWVRQAPGQGLEWMGRIDPDNHNTKFDPKFQGRVTITADTSTSTAYMELSSLRSEDTAVYYCARGVFGFFEHWGQGTTVTVSSASVAAPSVFIFPPSDEQLKSGTASVVCLLNNFYPREAKVQWKVDNALQSGNSQESVTEQDSKDSTYSLSSTLTLSKADYEKHKVYACEVTHQGLSSPVTKSFNRGEC light 2: EIVLTQSPATLSLSPGERATLSCRASQHVSDAYLAWYQQKPGQAPRLLIYDASDRAEGVPARFSGSGSGTDFTLTISSLEPEDFAVYYCHQYIHLHSFTFGQGTKVEIKRTVAAPSVFIFPPSDRKLKSGTASVVCLLNNFYPREAKVQWKVDNALQSGNSQESVTEQDSKDSTYSLSSTLTLSKADYEKHKVYACEVTHQGLSSPVTKSFNRGEC |  |  |  |  |  |  | IC50, inhibition of THP-1 migration (chemotaxis assay) [4]: 0.2 µg/mL |
| ABN912//11K2-PGLALA (bispecific antibody, V domains shown, CrossMab, IgG1 with L234A, L235A, P329G, knobs-into-holes; VH/VL-crossed arm humanized 11K2, non-crossed arm ABN912; also called CCL2-0041; P1AA3411) VH 1: QVQLVQSGAEVKKPGSSVKVSCKASGLTISDTYMHWVRQAPGQGLEWMGRIDPANGNTKFDPKFQGRVTITADTSTSTAYMELSSLRSEDTAVYYCARGVFGFFDYWGQGTTVTVSS VL 1: DIQMTQSPSSLSASVGDRVTITCKATEDIYNRLAWYQQKPGKAPKLLISGATSLETGVPSRFSGSGSGTDYTLTISSLQPEDFATYYCQQFWSAPYTFGGGTKVEIK VH 2: EVQLVQSGGGLVQPGGSLRLSCAASGFTFSHYWMSWVRQAPGKGLEWLANIEQDGSEKYYVDSVKGRFTISRDNAKNSLYLQMNSLRAEDTAVYFCARDLEGLHGDGYFDLWGRGTLVTVSS VL 2: AIQLTQSPSSLSASVGDRVILTCRASQGVSSALAWYQQKPGKAPKLLIYDASSLESGVPSRFSGSGSGPDFTLTISSLQPEDFATYFCQQFNSYPLTFGGGTKVEIK |  |  |  |  |  | binds |  |
| 2F6 (antibody, IgG1, V domains shown, also called CCL2-0014) VH: QSLEESGGGLVQPEGSLTLTCTASGFSFNNNYYMCWVRQAPGKGLEWIGCISTDDSNTHYASWAQGRFTISKASSTALTLQVAGLTVADMATYFCARDAHFTSYGYGFDLWGPGTLVTVSS VL: DIVMTQTPASVSAAVGGTVSINCRASEDIENLVAWYQQKPGQPPKLLIYQASKLASGVPSRFKGSGSGAEFTLTIGDLESADAATYYCQGDYGSGWIMYSFGGGTDLVVK | 6.7 | 59 | 0.867 | 91 | 0.783 |  |  |
| 1A5//2F6-PGLALA (bispecific antibody, V domains shown, CrossMab, IgG1 with L234A, L235A, P329G, knobs-into-holes; crossed arm 1A5, non-crossed arm 2F6; also called CCL2-0055; P1AA3402) VH 1: QEQLVESGGDLVKPEGSLTLTCTASGFSFSTSYWMCWVRQAPGKGLELIACISSSIGVTYYASWAEGRFTISKTSSTTVTLQMTSLTVADTATYFCARTTDDNWNVGFNLWGPGTLVTVSS VL 1: AYDMTQTPASVEVGVGGTVTIKCQASQSIGNRYLSWYQQKPGQPPKLLIYGTSTLASGVSSRFKGSGSGTQFTLTISGVESADSATYYCQQGATISYLDNAFGGGTEVVVK VH 2: QSLEESGGGLVQPEGSLTLTCTASGFSFNNNYYMCWVRQAPGKGLEWIGCISTDDSNTHYASWAQGRFTISKASSTALTLQVAGLTVADMATYFCARDAHFTSYGYGFDLWGPGTLVTVSS VL 2: DIVMTQTPASVSAAVGGTVSINCRASEDIENLVAWYQQKPGQPPKLLIYQASKLASGVPSRFKGSGSGAEFTLTIGDLESADAATYYCQGDYGSGWIMYSFGGGTDLVVK |  |  |  |  |  | binds |  |
| 11K2//2F6-WT IgG1 (bispecific antibody, V domains shown, CrossMab, wild type IgG1 with knobs-into-holes; crossed arm humanized 11K2, non-crossed arm 2F6; also called CCL2-0056; P1AA3392) VH 1: QVQLVQSGAEVKKPGSSVKVSCKASGLTISDTYMHWVRQAPGQGLEWMGRIDPANGNTKFDPKFQGRVTITADTSTSTAYMELSSLRSEDTAVYYCARGVFGFFDYWGQGTTVTVSS VL 1: DIQMTQSPSSLSASVGDRVTITCKATEDIYNRLAWYQQKPGKAPKLLISGATSLETGVPSRFSGSGSGTDYTLTISSLQPEDFATYYCQQFWSAPYTFGGGTKVEIK VH 2: QSLEESGGGLVQPEGSLTLTCTASGFSFNNNYYMCWVRQAPGKGLEWIGCISTDDSNTHYASWAQGRFTISKASSTALTLQVAGLTVADMATYFCARDAHFTSYGYGFDLWGPGTLVTVSS VL 2: DIVMTQTPASVSAAVGGTVSINCRASEDIENLVAWYQQKPGQPPKLLIYQASKLASGVPSRFKGSGSGAEFTLTIGDLESADAATYYCQGDYGSGWIMYSFGGGTDLVVK |  |  |  |  |  | binds |  |
| 1A5//2F6-WT IgG1 (bispecific antibody, V domains shown, CrossMab, wild type IgG1 with knobs-into-holes; crossed arm 1A5, non-crossed arm 2F6; also called CCL2-0058; P1AA3427) VH 1: QEQLVESGGDLVKPEGSLTLTCTASGFSFSTSYWMCWVRQAPGKGLELIACISSSIGVTYYASWAEGRFTISKTSSTTVTLQMTSLTVADTATYFCARTTDDNWNVGFNLWGPGTLVTVSS VL 1: AYDMTQTPASVEVGVGGTVTIKCQASQSIGNRYLSWYQQKPGQPPKLLIYGTSTLASGVSSRFKGSGSGTQFTLTISGVESADSATYYCQQGATISYLDNAFGGGTEVVVK VH 2: QSLEESGGGLVQPEGSLTLTCTASGFSFNNNYYMCWVRQAPGKGLEWIGCISTDDSNTHYASWAQGRFTISKASSTALTLQVAGLTVADMATYFCARDAHFTSYGYGFDLWGPGTLVTVSS VL 2: DIVMTQTPASVSAAVGGTVSINCRASEDIENLVAWYQQKPGQPPKLLIYQASKLASGVPSRFKGSGSGAEFTLTIGDLESADAATYYCQGDYGSGWIMYSFGGGTDLVVK |  |  |  |  |  | binds |  |

Source: patent US20240360208A1 (Hoffmann-La Roche, published 2024)
